Target: T1, Mouse MAVS, endogenous, on mitochondria of wild-type MEFs and BMDCs (UniProt Q8VCF0)
T1 sequence: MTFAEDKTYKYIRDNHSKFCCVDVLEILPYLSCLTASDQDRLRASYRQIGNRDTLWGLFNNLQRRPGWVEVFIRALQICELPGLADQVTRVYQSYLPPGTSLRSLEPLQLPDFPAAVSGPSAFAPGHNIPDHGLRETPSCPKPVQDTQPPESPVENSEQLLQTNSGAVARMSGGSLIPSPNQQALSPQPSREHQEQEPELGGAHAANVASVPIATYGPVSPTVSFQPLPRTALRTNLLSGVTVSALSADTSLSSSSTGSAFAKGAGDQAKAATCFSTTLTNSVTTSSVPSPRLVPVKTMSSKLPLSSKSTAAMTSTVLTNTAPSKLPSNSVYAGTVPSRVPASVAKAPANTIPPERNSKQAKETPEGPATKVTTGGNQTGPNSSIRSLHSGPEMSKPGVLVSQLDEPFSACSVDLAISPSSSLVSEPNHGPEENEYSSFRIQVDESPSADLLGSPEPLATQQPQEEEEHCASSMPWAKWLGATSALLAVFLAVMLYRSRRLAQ

“Coxsackievirus B3 (CVB3) 3C^pro protease” was tested, and the “MAVS cleavage in CVB3-infected MEFs (immunoblotting), 3 h post-infection” value was “the CVB3 3C^pro protease had produced only a small amount of cleaved MAVS” and the “MAVS cleavage in CVB3-infected MEFs (immunoblotting), 24 h post-infection” value was “CVB3 3C^pro had significantly cleaved MAVS”.

From US20190099470
